Experimental data: paper PMC12501251 (Communications Biology, 2025)

Columns and labels:
Assay in all cases: ELISA
[1] = target: N3 NA (head domain plus stalk region) from A/swine/Missouri/2124514/2006 (H2N3) (Influenza A virus …, UniProt A9YN63, strain)
[2] = target: N1 NA head domain (residue 82-469) from A/Brevig Mission/1/1918 (H1N1) (Influenza A virus A/Brevig …, UniProt Q9IGQ6)
[3] = target: T1, N2 NA head domain from A/Japan/305/1957 (H2N2) (Influenza A virus A/Japan/305/1957 …, strain)
T1 chain: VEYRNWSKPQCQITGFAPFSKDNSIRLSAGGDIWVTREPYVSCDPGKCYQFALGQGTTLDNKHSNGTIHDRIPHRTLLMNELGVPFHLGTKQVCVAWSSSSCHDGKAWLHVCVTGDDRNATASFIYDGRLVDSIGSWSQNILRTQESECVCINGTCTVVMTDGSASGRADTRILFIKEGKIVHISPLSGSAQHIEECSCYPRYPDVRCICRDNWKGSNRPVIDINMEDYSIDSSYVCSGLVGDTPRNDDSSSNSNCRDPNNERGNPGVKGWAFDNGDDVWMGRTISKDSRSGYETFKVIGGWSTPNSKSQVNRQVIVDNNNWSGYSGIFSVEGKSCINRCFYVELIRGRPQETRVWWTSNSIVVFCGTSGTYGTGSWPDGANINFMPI

[4] = target: N8 NA (head domain plus stalk region) from A/gyrfalcon/41088-6/2014 (H5N8) (Influenza A virus …, UniProt A0A0C4WVM3, strain)

Measured: binding result

Chain of N1 NA head domain (residue 82-469) from A/Brevig Mission/1/1918 (H1N1) (Q9IGQ6 82-469): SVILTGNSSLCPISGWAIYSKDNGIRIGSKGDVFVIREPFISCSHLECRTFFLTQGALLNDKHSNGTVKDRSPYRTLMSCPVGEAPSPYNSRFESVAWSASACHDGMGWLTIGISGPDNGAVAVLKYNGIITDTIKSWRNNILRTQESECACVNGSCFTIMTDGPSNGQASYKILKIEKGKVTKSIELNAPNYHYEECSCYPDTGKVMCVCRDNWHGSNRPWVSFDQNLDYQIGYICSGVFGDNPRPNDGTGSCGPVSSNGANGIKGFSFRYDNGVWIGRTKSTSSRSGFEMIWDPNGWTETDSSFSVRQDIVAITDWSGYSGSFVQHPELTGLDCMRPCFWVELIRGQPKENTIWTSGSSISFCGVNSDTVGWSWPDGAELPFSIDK

B1: 1122A11 (human IgG1 mAb) (antibody, V domains shown)
VH: QVQLVQSGAEVSKPGASVKVSCKASGYSFTSQSLGWVRQAPGQGLEWMGIINPSGGITNYAHKFQGRVTMTRDTSTSTVYMELSSLRSEDTALYYCVRDLSHYNEVGHDRAYYYGMDIWGQGTTVTVSS
VL: SYELIQPPSVSVSPGQTASITCSGDKLGKKYTCWYQQKPGQSPVLVIYQDNKRPSGIPERFSGSNSGNTATLTISGTQAMDEADYYCQAWDSSAVVFGGGTKLTVL
binds: all assays above
